In patent US20140087995A1 (published 2014):
Where two headings read alike, the source gives them in different places. Numbered stars: 1 amine (or outer) side, 2 acyl side, 3 side chain; on linkers, the order of the positions; unused ones are H or OH. Bridge positions count the residues as written; N and C are the ends. Side chains are listed from the residue outwards. Ends that are not written are not given here. * marks the point of attachment. C20 diacid = O=C(O)CCCCCCCCCCCCCCCCCCC(=O)*; γGlu = O=C(O)[C@H](CCC(=O)[*:2])N[*:1]

What was measured:
[1] = target: T1, human calcitonin receptor (human, UniProt P30988 25-474); test: cell-based or functional assay
T1 sequence (looked up): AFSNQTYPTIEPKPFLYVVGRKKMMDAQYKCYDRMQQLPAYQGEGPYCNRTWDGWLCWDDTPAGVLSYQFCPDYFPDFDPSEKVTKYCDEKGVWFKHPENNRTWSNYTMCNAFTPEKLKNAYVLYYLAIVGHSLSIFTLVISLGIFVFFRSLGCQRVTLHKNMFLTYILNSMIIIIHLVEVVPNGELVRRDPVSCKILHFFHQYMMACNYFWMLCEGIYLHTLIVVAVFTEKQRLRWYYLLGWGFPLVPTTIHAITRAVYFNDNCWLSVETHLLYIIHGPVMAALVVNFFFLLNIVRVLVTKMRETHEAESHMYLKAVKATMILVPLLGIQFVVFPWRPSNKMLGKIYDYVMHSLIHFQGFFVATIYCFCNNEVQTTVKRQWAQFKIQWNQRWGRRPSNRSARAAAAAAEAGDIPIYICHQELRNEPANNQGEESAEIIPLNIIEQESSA

[2] = target: T2, human amylin receptor (amylin 3(a) receptor: human calcitonin receptor plus RAMP-3) (human, UniProt P30988 25-474; O60896 24-148); test: cell-based or functional assay
T2 sequence (looked up) 1: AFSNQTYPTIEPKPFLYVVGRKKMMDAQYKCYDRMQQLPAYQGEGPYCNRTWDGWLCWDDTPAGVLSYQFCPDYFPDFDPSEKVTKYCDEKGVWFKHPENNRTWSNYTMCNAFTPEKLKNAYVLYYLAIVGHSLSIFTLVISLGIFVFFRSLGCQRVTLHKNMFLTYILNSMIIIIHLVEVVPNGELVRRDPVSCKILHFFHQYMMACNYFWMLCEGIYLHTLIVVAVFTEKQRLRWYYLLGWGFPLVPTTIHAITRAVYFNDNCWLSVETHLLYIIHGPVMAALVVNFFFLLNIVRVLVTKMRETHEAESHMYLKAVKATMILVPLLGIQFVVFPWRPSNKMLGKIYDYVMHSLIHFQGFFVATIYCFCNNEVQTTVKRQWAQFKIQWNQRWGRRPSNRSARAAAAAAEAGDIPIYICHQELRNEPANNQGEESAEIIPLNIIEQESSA
T2 sequence (looked up) 2: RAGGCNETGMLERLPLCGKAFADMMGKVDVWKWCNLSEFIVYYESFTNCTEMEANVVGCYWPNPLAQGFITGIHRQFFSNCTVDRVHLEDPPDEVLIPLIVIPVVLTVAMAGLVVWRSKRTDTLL

[3] = target: T1, human calcitonin receptor; test: cell-based or functional assay; remark: listed apart in the source
[4] = target: T2, human amylin receptor (amylin 3(a) …); test: cell-based or functional assay; remark: listed apart in the source
[5] = target: T2, human amylin receptor (amylin 3(a) …); test: SPA competition, displacement of 125I-rat amylin from membranes of BHK cells with human calcitonin receptor + RAMP-3 (Assay V)
Method in brief: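 SPA beads with BHK Amylin 3(a)/CRE-luc cell membranes (35 ng/μL final) in 50 mM Hepes pH 7.4, 1 mM CaCl2, 5 mM MgCl₂, 0.1% OA, 0.02% Tween20.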

[6] = target: T2, human amylin receptor (amylin 3(a) …); test: as above; remark: listed apart in the source
Procedure: The binding assay was performed using scintillation proximity assay (SPA) beads (RPNQ0001) from PerkinElmer and cell membranes from the Amylin 3(a)/CRE-luc cells (as described in Assay (II)) were used. Membranes were prepared in the following way; the cells were rinsed with PBS and incubated with Versene for approximately 5 min before harvesting. The cells were flushed with PBS and the cell-suspension was centrifuged for 5 min at 1000 rpm. Cells were homogenized (ultrathurrax) in a buffer containing 20 mM Na-HEPES and 10 mM EDTA (pH 7.4) and centrifuged at 20.000 rpm for 15 min. The resulting pellet was resuspended, homogenized and centrifuged (20.000 rpm, 15 min) in a buffer containing 20 mM Na-HEPES and 0.1 mM EDTA (pH 7.4, buffer 2). The resulting pellet was resuspended in buffer 2 and protein concentration was measured (BCA protein Assay, Pierce). The homogenate was kept cold during the whole procedure. The membranes were kept at −80° C. until use. The assay was performed in a 384 well Optiplate (PerkinElmer) in a total volume of 40 ul. Membranes were mixed with SPA beads. Final concentration of membranes 35 ng/μL final and SPA beads was 0.05 mg/well. Test-compounds were dissolved in DMSO and further diluted in assay buffer (50 mM Hepes, pH 7.4, 1 mM CaCl2, 5 mM MgCl₂, 0.1% OA and 0.02% Tween20). […] The final mixture was incubated with shaking at 400 rpm for 120 min at 25° C. prior to centrifugation (1500 rpm, 10 min). Samples were analyzed on TopCounter™ (Packard). The IC₅₀ was calculated using (one site binding competition analysis) GraphPad Prism5 as a measure of receptor affinity.

B1: N^ε1-[(4S)-4-carboxy-4-(19-carboxynonadecanoylamino)butanoyl]-[Glu14,Arg17,Pro21,Pro27,His35]-h-amylin (peptide)
peptide: K([γGlu-C20 diacid])CNTATCATQRLAEFLRHSSPNFGAIPSSTNVGSHTY-NH2
modifications: disulfide 2-7; N-terminus assumed
SMILES: CC[C@H](C)[C@H](NC(=O)[C@H](C)NC(=O)CNC(=O)[C@H](Cc1ccccc1)NC(=O)[C@H](CC(N)=O)NC(=O)[C@@H]1CCCN1C(=O)[C@H](CO)NC(=O)[C@H](CO)NC(=O)[C@H](Cc1c[nH]cn1)NC(=O)[C@H](CCCNC(=N)N)NC(=O)[C@H](CC(C)C)NC(=O)[C@H](Cc1ccccc1)NC(=O)[C@H](CCC(=O)O)NC(=O)[C@H](C)NC(=O)[C@H](CC(C)C)NC(=O)[C@H](CCCNC(=N)N)NC(=O)[C@H](CCC(N)=O)NC(=O)[C@@H](NC(=O)[C@H](C)NC(=O)[C@@H]1CSSC[C@H](NC(=O)[C@@H](N)CCCCNC(=O)CC[C@H](NC(=O)CCCCCCCCCCCCCCCCCCC(=O)O)C(=O)O)C(=O)N[C@@H](CC(N)=O)C(=O)N[C@@H]([C@@H](C)O)C(=O)N[C@@H](C)C(=O)N[C@@H]([C@@H](C)O)C(=O)N1)[C@@H](C)O)C(=O)N1CCC[C@H]1C(=O)N[C@@H](CO)C(=O)N[C@@H](CO)C(=O)N[C@H](C(=O)N[C@@H](CC(N)=O)C(=O)N[C@H](C(=O)NCC(=O)N[C@@H](CO)C(=O)N[C@@H](Cc1c[nH]cn1)C(=O)N[C@H](C(=O)N[C@@H](Cc1ccc(O)cc1)C(N)=O)[C@@H](C)O)C(C)C)[C@@H](C)O
Question: With B1 as the binder, how does the “hCTR funct. EC50 (pM)” value [1] read?
Answer: The value was 5580 pM.

Question: What about the “hAmylin-R funct. EC50 (pM)” value [2] of the same binder?
Answer: The value was 425 pM.

Question: What about the “hCTR funct. EC50 (pM)” value [3] of the same binder?
Answer: The value was 5580 pM.

Question: And the “hAmylin-R funct. EC50 (pM)” value [4]?
Answer: The value was 425 pM.

Question: What about the IC50 [5] of the same binder?
Answer: Its IC50 is 0.992 nM.

Question: What about the IC50 [6] of the same binder?
Answer: Its IC50 is 0.992 nM.
